Test: soluble fraction after stress (log2 fold change); higher = more stays soluble; pooled small domains, quantitative proteomics
Conditions: stress: 75 degC
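Further: 20 min heating vs room temperature control held 20 min.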

| Sequence | soluble fraction (log2) |
| --- | --- |
| HMSERIITFGEATREAMLEEMRADERVFVYGEDIAKQGGIFGQFAGMKDEFPERVLDTPISETALVGAG | 0.157 |
| HMSNGFFELKTSQQDELIDLIDSHTNFVRTKIEGELITAFLKLPMDAEEFNKLLFTNGIILSHLVKRK | -0.713 |
| HMVTEKNALTIEIEDLTKRFGNQRESLLPILQEVQLKHGHISDFAQQEIARLLDIHPVEVYGVVTFFSFLS | -3 |
| HMKPGTIVTGVVVDIKSDVVVVNAGLKSEGIVPIEQFRNDRGELEVAIGDEVKVALDSLENGFGETVLSRE | -0.435 |
| HMPVYEEEVPAALDGQRLDRVVAMVTGLSRSEVGALLAAGAVTVDGTTPAKGSVRLAAGSIVSVTVS | -0.357 |
| HMSWNIHEAVEYYKGQDAPQNQFALVELLKEVQEHNGGVLTDIAVEEIAALLNTKVTFLNAVIKRYPSLK | -0.661 |
| HMKQLNKRQDDILSLAEKEGYVSVENLAKTFTVSQQTIRRDINYLSDHEFLVRTHGGAFYSSG | -0.252 |
| HMELPPLEPIDRILVVQQPINIREQPGVLAKKIGRVSSGETLTILAKVSGQDWYFVETDNGGRGYVFKRV | -1.15 |
| HMADPAVLIAELFRAMPEKRFSVKNLISATGAETREQKDYVREVVHSLSREGMIEQVAEGKYRLSASE | 0.299 |
| HMELNDEELIKGIQELLTKIGYDPGEINGVLGIKTSSAISAFQQSRNKAITGEADLDLLVQLQIELRKITT | -1.86 |
| HMEDVLVTQIIQLKHVDANDMKTLFTPLLSRGSSQLLAYPQSNVLIITDTRSNIKKITEILDIIDKS | -3.02 |
| HMTTKYVAVHESKDGYWTIASKPSSKEDAEAMLGGTPKNEVGKVVTLEEAKAHKKTLGEEYLYE | 0.218 |
| HMNNLVGKTKVLKSNTNIYAYKTMSGKFYSYLPNTRVRVLQDLGYINYIEVIATKRRGYVYENVY | -0.234 |
| HMQPMIQIHTLANHAPVALHIKRNTQRNIIIRARDASSLNLSIPKWFSPAQLQNWLRDNEATLIRILQQAP | -3.6 |
| HMDWVAYGAELRRRRLLAGWTVAELSRRINLSGMTIHQIEKGRGRLRPSELTLAKLAAALGMPTP | -3.58 |
| HMSGKWKIRILWYIAEYEVQRFGELRRRLGDITQSTLTEQLRELEQDGFVSRYVYQEVPSKVEYSLTE | 0.197 |
| HMEATEFYLEDLTGQMYNDVVNDEKYAGKIVFEKEEVQSDGEEAIGQILNQRPAGNMNVRIGTTVTLVVNA | 0.242 |
| HMVIANADVRAKFSKGKDSFVKYYFKEKVLKDGFTEEVKNNIVQALFYLQIVTRIDGESGVLIIDY | 0.123 |
| HMYKTKVDIAYDMLMERITEGVYKPGEKLVITHISKELGISDIPVREAIRRLESEGYVKILPNQGAIVYD | -0.671 |
| HMTLTIEDGYVNAKLKTTVEGLAEDSTIKVDSIEYTNAGKNDILTVFVEDKPYRVEKYKINIAPEDS | 0.139 |
| HMPIDIEPVLQWIRDNSIDGIGPARSMYHSAAAAAGLPSYSSLQLRKWTWPLLLDAAGVQRR | -0.427 |
| HMVLTYYSVLGVKTDATTEEIKSTYKQLAIRNHPDRGGSEEVMKMINLAAEILSDPKSRKEYDLSLDA | -2.06 |
| HMRDADRYAFMQENVEDFAKDMRRKHMTYDVLYEEYIRRTDNPYGYTQFKAIVQEYEKNHDYK | -0.367 |
| HMSNTPHSREVLLEMDAVRRLLAVGEEKGEVDRADLQGAFEEAELGRGDLDGVLSILREYDVPLAR | 0.0604 |
| HMDFSSRLKDERKRLKLSQAQLGEAGGVSKDAQLNYENGSRSPSASYLELIAREGVDVQFLLTGKRS | 0.155 |
| HMKEQYDLNDREQQFISLVANGLNNKEIAETLFLSEGTVRNYLSNLLDKLGLRDRTQLAIFFYQHL | -2.01 |
| HMAFIEIMTEGDADGRGFQYPIPTYSITRDFDWSETENNKLLFEMTAKYGTPYFSNYINSDMEPSDV | -1.13 |
| HMQLSQLLQPFDINAFKGHPLYTEENVKMFNDYTNRVKEWTKGTPYEQYWVTKEGQPTMLAWDSFKK | -1.28 |

| Sequence | soluble fraction (log2) |
| --- | --- |
| HMRESPYRRVAKFLLLIGTAEAAKIVSRLDQDQVEKVMLELSGIRSVPRDEATVILAEFESLLQQAR | -2.03 |
| HMNDVHELPYSSFIEMVERGHVISVTVKHINIEFESTKNENYRTIAPQAMTPPYLELLLKNKDSVKVTFLP | -1.98 |
| HMNVAVGNSKLVGVAGERAYFVNGVGAAARTLSLQVGDALPTGEKVRRIERDGVTMTGASGDVRLSVLP | 0.00812 |
| HMHMIDDYLARIGQLIRDARQHRGWTQVQLAEALGTSQSAVNRIERGNQNISLEMIARIGEALGSEIVSLG | -2.24 |
| HMAPLATLEADGNGAVKLPNLAGHAIREVAAALGGANLALIPIGSGTSWKQNPAPGTILHKGDTVTVYF | 0.153 |
| HMAGTAMRATTAVNVRSGAGTNYSRIGLLQAGEQIQALSSKNGWTQVSYKGRTGYVASAYLASL | -2.57 |
| HMSGPSDRDLFDEALALLSGSGREPDYHEARIRLGTLVEQFPESKWAEGAKALLSMLDRVSALQV | 0.247 |
| HMGEKFTFGQIAKAKAYAKTYANDMTSAVKNIEAIATGLSKHPEVADTLKKANENQELNRITKLAG | -0.0289 |
| HMEDIKHVVANNIKKYRKEERLTLQQLSYLTGVSKTMLNQIETEKSSPSITILWRISSGLKIPLSKLISSP | -1.58 |
| HMEPEAKIDFILKAAQKRLGLYGYEKTTMQEIAADINMSKAALYYYFPDKESLFKAVVENEQEEYFH | -1.97 |
| HMPRKYFPFYFTFRETAQTMPPRLRAVFYEAIIEYGTTGKEPTLPKSIAGYWPLVKPTLDSAKAHYDAG | -3.62 |
| HMDALKAVYQWVTRTMMKNQTGVMQTLPNRDLIELNTQITAQRLMQAGVDPTTLKNANQVENAVNIIESR | -0.69 |
| HMNTVAKELATQATQAKKRAFLDAYAETGIIKRAAEIAGIERKSHYLWLEKDPEYVEAFKSAGEQ | 0.427 |
| HMQQPVVVQQNQTVRVVTGGPGFQVANEGRALNNGLAGQVVQVRLGNGQIISGIARAGGIVEIL | -0.017 |
| HMQRADYLILYYIKMQAEQHPDSKVYLADLAAVMGLKVTELSKAVEKLQDNGFVAWKTDREAGRTYVELS | -3.13 |
| HMKIVQDIAFSDFLNEVEKDNVLDVNIKGDLINGNLADGRKFKTYTPYDPNLIEKLSNKNVTINVEPYN | 0.512 |
| HMNASVIADLFRQTGASVMIHGHTHRPDIHALEANGDAAFRAVLGAWHTEGSMIRVTQDDVTLIAFP | 0.0461 |
| HMEDNYYENKINYLFGYLDEADKEISVNSILDFHLAHRTNPEFVFEPKKNTNPLIWKYLSNSNLLY | 0.398 |
| HMLENIVFTNKFKNKRLDVLLVDMKLVSSRQKAVSLIMRGNVFVEEERADKPGKIIKLNQTISLKK | -2.78 |
| HMDEILHHPSYRAIYEYMLDHKHVKTKDIAALLNVKEPRARQLLKEMIDKHFIIALGSNRNREYELL | -0.94 |
| HMGTIRAPMPGTILKINVVDGDSVTKGDVLLILESMKMENSITSPKTGSVTSVYVSEGDPVQHGETLIDL | -0.196 |
| HMTKQRSAIMNLLAERNTPLTAEEIGEAIAPSYPKLALSTVYRNLELFTNAGLLEKSFFQDGITRYSLTK | -0.976 |
| HMSLTPSQDANRSAILDAARDLFARYGFKKTTMEDIAMALRKGKSSLYYYFKNKEDIFQAVIDS | -1.25 |
| HMIFELDSDRASAGNTIGKLVSKWNNTEVASVQFVSGDDTSNKDNASIYLNTRSGGSGNLVRLRITK | 0.429 |
| HMKTGNIIAVSLVWKGKYYMIRMFFPSAARPSRADVQTEIEKVYPGSKLSSFSVSDYEPGQPLLQV | -3.05 |
| HMTANPHKPEPLQIDTSDITPGVTVIHKAFGNGTVVSVDNNRILIDFDGIEKKFPFPGAFLYGFLQK | -0.547 |
| HMASVRPVAPPDPKTHTRLTYRIRRGDTLERIGRRYRVSIAEIQAWNTLRDPGDILAGQRLVIWIPTS | -2.33 |

Source: the domain aggregation screens of Martell et al. (2025)
